{"source": "paper PMC3994049", "about": "“Molecular Characterization and Expression of a Novel Alcohol Oxidase from Aspergillus terreus MTCC6324” (PLoS ONE, 2014)", "molecules": {"B1": {"name": "rAOx (recombinant alcohol oxidase, A. terreus MTCC6324) (Aspergillus terreus) (protein)", "chain": "MTIPDEVDIIICGGGSSGCVPAGRLANLDPSLSVLLIEAGEDNLNNPWVYRPGIYPRNMKLDSKTASFYYSRPSEHLDGRRAIVPCANILGGGSSINFMMYTRASASDYDDFQAEGWKTKDLVPLMRKHETYQRACNNRELHGFDGPIKVSFGNYTYPIMRDFLRAAESQDIPITDDLQDLKTGHGAEHWLKWINRDTGRRSDAAHAYVHSTRAKQSNLHLKCNTKVDKVIIENGRAVGVATVPSKPLDGHDPPRKIFRARKQIIISSGTLSSPLILQRSGIGDPEKLRAAGIRPLMNLPGVGRNFQDHYLTFSVFRAKPDVESFDDFVRGDPEVQKKVFDEWNLKGTGPLATNGIDAGVKIRPTEKELEEMKKWPTPEFVDGWETYFKNKPDKPVMHYSVIAGWFGDHMLMPPGKFFTMFHFLEYPFSRGFTHVKSADPYGNPDFDAGFMNDKRDMAAMVWGYIKSRETARRMSSYAGEVTAMHPHFAYDSPARAFDLDLETTKAYAGPNHITAGIQHGSWSHPLEKGNPSLETHLNSHRQDTRNELQYSNEDIKHIEKWVQRHVETTWHSLGTCSMAPREGNSLTKHGGVVDERLNVHGVEGLKVCDLSICPDNVGCNTFSTALLIGEKCAMLVAEDLGYSGAALEMKVPTYHAPGEFTGLARL", "notes": "full-length ORF 2001 bp, 666 residues; pET28a(+), N- and C-terminal His6 kept; ~74-76 kDa; highly aggregated (~1000 nm)"}}, "key": {"[1]": {"tested_on": "COc1cccc(CO)c1", "experiment": "purified protein", "conditions": "apparent, FAD-reconstituted enzyme, 0.1 M sodium phosphate pH 6.0"}, "[2]": {"target": "T1, rAOx (recombinant alcohol oxidase, A. terreus MTCC6324) (Aspergillus terreus, UniProt I7FDJ2)", "T1 construct": "gene AOx; full-length ORF 2001 bp, 666 residues; pET28a(+), N- and C-terminal His6 kept; ~74-76 kDa; highly aggregated (~1000 nm)", "T1 sequence (I7FDJ2 1-666)": "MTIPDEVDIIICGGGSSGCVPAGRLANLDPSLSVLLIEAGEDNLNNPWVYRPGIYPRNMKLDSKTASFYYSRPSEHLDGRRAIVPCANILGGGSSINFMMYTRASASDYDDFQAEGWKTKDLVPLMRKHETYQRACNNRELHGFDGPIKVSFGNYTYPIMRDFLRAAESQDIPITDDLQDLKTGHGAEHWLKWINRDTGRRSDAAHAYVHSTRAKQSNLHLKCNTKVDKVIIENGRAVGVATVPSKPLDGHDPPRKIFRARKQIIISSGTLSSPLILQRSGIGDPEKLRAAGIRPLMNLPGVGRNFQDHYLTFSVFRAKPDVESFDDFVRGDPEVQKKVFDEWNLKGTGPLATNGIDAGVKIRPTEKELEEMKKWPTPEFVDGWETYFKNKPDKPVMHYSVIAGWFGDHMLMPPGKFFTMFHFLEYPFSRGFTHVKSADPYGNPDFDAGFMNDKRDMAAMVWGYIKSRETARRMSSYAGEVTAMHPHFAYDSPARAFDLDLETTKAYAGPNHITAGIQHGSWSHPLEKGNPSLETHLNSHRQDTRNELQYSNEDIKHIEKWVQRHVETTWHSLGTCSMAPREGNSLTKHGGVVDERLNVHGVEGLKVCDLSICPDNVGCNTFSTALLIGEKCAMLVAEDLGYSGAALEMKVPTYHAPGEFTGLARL", "experiment": "FAD fluorescence quenching (ex […] nm, em […] nm) after reconstitution of apoenzyme", "format": "binding", "conditions": "refolding of apo-rAOx with 0.08 mM FAD, pH 9.0, 16 °C, ~80 h"}, "[3]": {"substrate": "OCc1ccccc1", "experiment": "purified protein", "format": "biochemical, Aspergillus terreus", "conditions": "apparent, FAD-reconstituted enzyme, 0.1 M sodium phosphate pH 6.0"}, "[4]": {"substrate": "COc1ccc(CO)cc1OC", "experiment": "purified protein", "format": "biochemical, Aspergillus terreus", "conditions": "apparent, FAD-reconstituted enzyme, 0.1 M sodium phosphate pH 6.0"}}}
{"molecule": "rAOx (recombinant alcohol oxidase, A. terreus MTCC6324) (Aspergillus terreus)", "values": [{"measurement": "Km", "setting": "[1]", "value": 2.88, "unit": "mM"}, {"measurement": "kcat", "setting": "[1]", "value": 106, "unit": "s⁻¹"}, {"measurement": "kcat/Km", "setting": "[1]", "value": 36700, "unit": "M⁻¹ s⁻¹"}]}
{"molecule": "Cc1cc2nc3c(=O)[nH]c(=O)nc-3n(C[C@H](O)[C@H](O)[C@H](O)COP(=O)(O)OP(=O)(O)OC[C@H]3O[C@@H](n4cnc5c(N)ncnc54)[C@H](O)[C@@H]3O)c2cc1C", "note": "[FAD]", "values": [{"measurement": "FAD fluorescence quenching (ex 443 nm, em 527 nm) after reconstitution of apoenz", "setting": "[2]", "value": "lower fluorescence intensity of the holoenzyme relative to that of free FAD inferred efficient incorporation"}]}
{"molecule": "B1", "values": [{"measurement": "Km", "setting": "[3]", "value": 10.80, "unit": "mM"}, {"measurement": "kcat", "setting": "[3]", "value": 2.16, "unit": "s⁻¹"}, {"measurement": "kcat/Km", "setting": "[3]", "value": 200, "unit": "M⁻¹ s⁻¹"}, {"measurement": "Km", "setting": "[4]", "value": 4.91, "unit": "mM"}, {"measurement": "kcat", "setting": "[4]", "value": 115, "unit": "s⁻¹"}, {"measurement": "kcat/Km", "setting": "[4]", "value": 23500, "unit": "M⁻¹ s⁻¹"}]}
